# Results taken from US20240317846A1 (priority 2021, published 2024).
# “And” between values parts separate entries of the source, which are not always exact repeats. Equal entries are not always repeated. “Also recorded” adds a separate entry of the source. Where two headings read alike, the source gives them in different places. Marks after values point to notes of the source that are not given here.
# B1: Lenzilumab: first-in-class Humaneered recombinant monoclonal antibody targeting human GM-CSF, derived from mouse antibody LMM102 (antibody, chains of the INN, looked up, V domains shown)
# VH: QVQLVQSGAEVKKPGASVKVSCKASGYSFTNYYIHWVRQAPGQRLEWMGWINAGNGNTKYSQKFQGRVTITRDTSASTAYMELSSLRSEDTAVYYCVRRQRFPYYFDYWGQGTLVTVSS
# VL: EIVLTQSPATLSVSPGERATLSCRASQSVGTNVAWYQQKPGQAPRVLIYSTSSRATGITDRFSGSGSGTDFTLTISRLEPEDFAVYYCQQFNKSPLTFGGGTKVEIK
# Tests used:
# [1] = system: COVID-19; details: RECOVERY trial; cited from earlier work
# [2] = system: COVID-19; details: cited from earlier work; for Mean days to discharge: published cohorts; for Median days to discharge: published lopinavir-ritonavir cohort
# [3] = Pre-clinical toxicology program; type: in vivo; details: data not shown
# [4] = Four completed clinical trials (healthy volunteers, asthma, rheumatoid arthritis, chronic myelomonocytic leukemia); type: in vivo, human; details: 113 individuals received lenzilumab
# [5] = system: severe and critical COVID-19 pneumonia
# [6] = system: severe COVID-19 pneumonia; details: for Time to Recovery: placebo 8
# [7] = system: SARS-CoV-2 infection; type: in vivo, human; details: paper examples
# [8] = system: COVID-19 associated chronic ARDS; type: in vivo, human
# Experimental: Hospitalized subject with confirmed COVID-19 pneumonia and established risk factors for poor outcomes was treated in the ICU for 12 weeks using standard supportive care for chronic acute respiratory distress syndrome (ARDS). […] Patient characteristics, clinical and laboratory outcomes, and adverse events were recorded through duration of hospitalization.
# [9] = system: severe COVID-19 pneumonia
# [10] = system: COVID-19 pneumonia
# [11] = target: glycosylated human GM-CSF (Homo sapiens, UniProt P04141); test: Binding affinity for GM-CSF
# Sequence of glycosylated human GM-CSF (P04141 18-144): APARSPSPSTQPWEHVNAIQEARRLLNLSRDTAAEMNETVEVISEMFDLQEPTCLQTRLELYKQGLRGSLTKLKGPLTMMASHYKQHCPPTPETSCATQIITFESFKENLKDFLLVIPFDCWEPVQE
# [12] = one patient, 48 hours post-lenzilumab vs pretreatment
# [13] = lenzilumab alone or in the combination of the example
# [14] = Lenzilumab group n = 12, control 11
# [15] = repeated measures ANOVA, P<0.001
molecule,measurement,setting,value
Tocilizumab: anti-IL6 receptor monoclonal antibody,Increased likelihood of survival,[1],14%
same,Increased likelihood of survival without IMV,[1],18%
same,"Survival, Hazard Ratio",[1],1.14
same,"Ventilator-Free Survival, Hazard Ratio",[1],1.18
same,Range of days to discharge,[2]; 2 patients not discharged,(10-19)* days
same,Mean days to discharge,[2],13.5 days
lopinavir and ritonavir [Lopinavir/Ritonavir],Mean days to discharge,[2],13 days
same,Median days to discharge,[2],13** days
same,Median days to discharge,[2]; listed as Lopinavir-Ritonavir,13 days
B1,No Observed Adverse Effect Level (NOAEL),[3],> 100 mg/kg/week
same,Safety in completed clinical development studies,[4],No treatment emergent serious adverse events (SAEs) or Suspected Unexpected Serious Adverse Reactions (SUSARSs); also recorded: very well tolerated
same,Median time to discharge post-lenzilumab,[5]; 11 discharged patients,5 days
same,Infusion reactions,[5]; 12 patients,no infusion reactions
same,Median time to a 2-point clinical improvement,[5]; 12 patients,5 days
same,Patients discharged,[5]; 12 patients,11 of 12
same,Patients discharged on home oxygen,[5]; 12 patients,42%
same,Patients who required invasive mechanical ventilation,[5]; 12 patients,8.3%
same,"Clinical improvement of at least 2 points on the 8-point ordinal clinical endpoints scale, proportion of patients","[5]; 12 patients, 600 mg IV every 8 h x3",92% and 91.7%
same,Mean IL-6 on day 3 following lenzilumab,[5]; baseline 26.8 pg/mL,16.1 pg/mL
same,Mean CRP on day 3 following lenzilumab,[5]; baseline 137.3 mg/L,51.2 mg/L
same,Absolute lymphocyte count on day 3,[5]; baseline 0.89,1.14e+09 L⁻¹
same,Mean absolute neutrophil count on day 3 post lenzilumab,[5]; baseline 5.1,4.8e+09 L⁻¹
same,Mean hemoglobin on day 3 post lenzilumab,[5]; baseline 12.9,11.4 g/dL
same,Mean temperature at day 3,[5]; baseline 37.95,36.97
same,Proportion of patients with SpO2/FiO2<315 at the end of observation,[5]; baseline 67%,8%
same,Mean platelet count on day 3 post lenzilumab,[5]; baseline 217.7,2.618e+11 L⁻¹
same,D-dimer after lenzilumab,[5]; individual patients 2 and 4,1507 ng/mL and 1802 ng/mL
same,"Ferritin after lenzilumab, at discharge",[5]; individual patients 3 and 5,571 µg/L and 1223 µg/L
same,Patients whose SpO2/FiO2 improved to >315 on day 1 post-lenzilumab,[5]; of 8 patients with SpO2/FiO2<315 at baseline,four
same,Patients with a 2-point improvement on 8-point ordinal scale,[5]; of 12 patients,1 patient
same,Patients with ≥3-point improvement on 8-point ordinal scale,[5]; of 12 patients,10 patients
same,"Cytokines involved in cytokine storm (G-CSF, MDC, GM-CSF, IL-1α, IFN-γ, IL-7, FLT-3L, IL-1rα, IL-6, IL-12p70)",[5]; [12],significant reduction
same,LDH after lenzilumab,"[5]; patient 4, hospital day 3",388 U/L
same,Range of days to discharge,[5]; patient 9 pending,(3-14)*** days
same,Patients requiring mechanical invasive ventilation,[5]; patients 1-5,None
same,Time to fever resolution after lenzilumab administration,[5]; patients febrile at baseline,≤ 48 h
same,"Time to clinical two point improvement, faster than comparator antivirals","[5]; vs Remdesivir, Lopinavir-Ritonavir, Tocilizumab cohorts",more than 50%
same,Acute kidney injury,"[6]; Grade ≥3, Lenzilumab N = 255",5 (2.0) n (%)
same,Acute respiratory distress syndrome,"[6]; Grade ≥3, Lenzilumab N = 255",4 (1.6) n (%)
same,Acute respiratory failure,"[6]; Grade ≥3, Lenzilumab N = 255",18 (7.1) n (%)
same,Cardiac arrest,"[6]; Grade ≥3, Lenzilumab N = 255",8 (3.1) n (%)
same,Cardiac disorders,"[6]; Grade ≥3, Lenzilumab N = 255",15 (5.9) n (%)
same,Cardio-respiratory arrest,"[6]; Grade ≥3, Lenzilumab N = 255",3 (1.2) n (%)
same,General disorders and administration site conditions,"[6]; Grade ≥3, Lenzilumab N = 255",4 (1.6) n (%)
same,Hypotension,"[6]; Grade ≥3, Lenzilumab N = 255",2 (0.8) n (%)
same,Hypoxia,"[6]; Grade ≥3, Lenzilumab N = 255",15 (5.9) n (%)
same,Infections and infestations,"[6]; Grade ≥3, Lenzilumab N = 255",10 (3.9) n (%)
same,Multiple organ dysfunction syndrome,"[6]; Grade ≥3, Lenzilumab N = 255",3 (1.2) n (%)
same,Pneumonia bacterial,"[6]; Grade ≥3, Lenzilumab N = 255",0 (0.0) n (%)
same,Pulmonary embolism,"[6]; Grade ≥3, Lenzilumab N = 255",5 (2.0) n (%)
same,Renal and urinary disorders,"[6]; Grade ≥3, Lenzilumab N = 255",5 (2.0) n (%)
same,Respiratory failure,"[6]; Grade ≥3, Lenzilumab N = 255",24 (9.4) n (%)
same,"Respiratory, thoracic and mediastinal disorders","[6]; Grade ≥3, Lenzilumab N = 255",64 (25.1) n (%)
same,Sepsis,"[6]; Grade ≥3, Lenzilumab N = 255",2 (0.8) n (%)
same,Septic shock,"[6]; Grade ≥3, Lenzilumab N = 255",5 (2.0) n (%)
same,Shock,"[6]; Grade ≥3, Lenzilumab N = 255",3 (1.2) n (%)
same,Vascular disorders,"[6]; Grade ≥3, Lenzilumab N = 255",10 (3.9) n (%)
same,Kaplan-Meier Estimate of Failure to Achieve SWOV,[6]; ITT (n = 520),18.9%
same,Kaplan-Meier Estimate of Failure to Achieve SWOV,"[6]; ITT subgroup n = 338, placebo 27.8%",17.8%
same,Kaplan-Meier Estimate of Failure to Achieve SWOV,"[6]; ITT, CRP <150 mg/L and age <85 (n = 359), placebo 22.6%",11.5%
same,Safety and tolerability,[6]; LIVE-AIR,safe and well tolerated
same,Any AE ≥ Grade 3,[6]; Lenzilumab N = 255,68 (26.7) n (%)
same,Serum CRP levels following treatment,"[6]; from two days after administration for 28 days, only in baseline CRP<150 mg/L",decreased CRP levels
same,Attributable serious adverse events,"[6]; incl. hematologic, liver enzyme abnormalities, pulmonary alveolar proteinosis, infection",no attributable serious adverse events
same,Time to Recovery,[6]; mITT (n = 236),8 median days
same,Mortality,"[6]; mITT (n = 236), placebo 13.9",9.6%
same,"Incidence IMV, ECMO or death","[6]; mITT (n = 236), placebo 21.4",15.4%
same,Kaplan-Meier Estimate of Failure to Achieve SWOV,"[6]; mITT (n = 479), Day 28, placebo 22.1%",15.6%
same,Kaplan-Meier Estimate of Failure to Achieve SWOV,"[6]; mITT subgroup n = 331 (remdesivir plus steroids per text), placebo 26.9%",16.3%
same,Kaplan-Meier Estimate of Failure to Achieve SWOV,"[6]; mITT, >2 days prior (n = 165), placebo 14.4%",13.7%
same,Kaplan-Meier Estimate of Failure to Achieve SWOV,"[6]; mITT, CRP <150 mg/L and age <85 (n = 336), placebo 21.1%",8.5%
same,Time to Recovery,"[6]; mITT, CRP <150 mg/L, Age <85 (n = 157)",7 median days
same,Mortality,"[6]; mITT, CRP <150 mg/L, Age <85 (n = 157), placebo 13.8",6.6%
same,"Incidence IMV, ECMO or death","[6]; mITT, CRP <150 mg/L, Age <85 (n = 157), placebo 19.5",7.2%
same,Improvement in Time to Recovery,"[6]; mITT, CRP<150 mg/L and age<85",36%
same,Kaplan-Meier Estimate of Failure to Achieve SWOV,"[6]; mITT, hospitalized 2 days prior or less (n = 297), placebo 27.6%",16.5%
same,Infusion-related reactions,[6]; safety population,no infusion-related reactions
same,"Serious adverse events, subjects","[6]; safety population, placebo 29.6%",24.7%
same,"Adverse events ≥Grade 3, subjects","[6]; safety population, placebo 32.7%",26.7%
same,Improvement in SWOV,[6]; subjects hospitalized <2 days,88%
same,2 point improvement in the NIAID eight point ordinal hospital scale,[7],faster
same,Number of hospital days,[7],reduction
same,Permanent pulmonary function impairment,[7],reduction
same,"Time to recovery (6, 7, or 8 on the eight point ordinal hospital scale)",[7],faster
same,Mortality rates,[7]; [13],reduction
same,Patients requiring ICU admission,[7]; [13],reduction
same,Patients requiring mechanical ventilation,[7]; [13],reduction
same,Oxygen demand one week post lenzilumab,"[8]; person, lenzilumab on week 13 of hospitalization",decreased from high-flow to low-flow nasal cannula
same,Infusion-related or systemic side effects,[8]; single patient,No infusion-related or systemic side effects
same,Lymphopenia post lenzilumab,[8]; single patient,appeared to improve
same,Time from lenzilumab to discharge home,"[8]; single patient, discharged on 4L nasal cannula",Sixteen
same,Infusion reactions,[9]; 12 patients,no infusion reactions
same,Treatment-emergent adverse events attributable to lenzilumab,[9]; 12 patients,No treatment-emergent adverse events attributable to lenzilumab
same,Ventilator-free survival vs untreated group,"[9]; Kaplan-Meier, log-rank P=0.06",favored the lenzilumab cohort
same,Days to resolution of fever,[9]; Lenzilumab group n = 12,2 days
same,Incidence of IMV,[9]; Lenzilumab group n = 12,(8%)
same,"Incidence of IMV and/or death, number of patients",[9]; Lenzilumab group n = 12,1
same,"Incidence of IMV, number of patients",[9]; Lenzilumab group n = 12,1
same,"Incidence of clinical improvement, number of patients",[9]; Lenzilumab group n = 12,11
same,Incidence of death,[9]; Lenzilumab group n = 12,(8%)
same,"Incidence of death, number of patients",[9]; Lenzilumab group n = 12,1
same,Patients free of ARDS (SpO2/FiO2 of 315 or higher) by the end of observation,[9]; Lenzilumab group n = 12,92%
same,Days to clinical improvement (median),[9]; [14],5 days
same,Days to discharge from hospital (median),[9]; [14],5 days
same,CRP reduction (mean),"[9]; after 4 days of treatment, control −0.95",135.8
same,IL-6 concentration on day 4 following lenzilumab,[9]; baseline 28.6 pg/mL,8.52 pg/mL
same,Mean absolute neutrophil count on day 4 post lenzilumab,[9]; baseline 5.1,4.8e+09 L⁻¹
same,Mean hemoglobin on day 4 post lenzilumab,[9]; baseline 12.9,11.4 g/dL
same,IL-6 reduction,[9]; baseline vs day 4,20.1
same,ALC increase (mean),"[9]; baseline vs day 4, control 0.03",0.46 × 10*9/L
same,Mean temperature reduction,"[9]; baseline vs day 4, control 0.459",1.075
same,PLT increase (mean),"[9]; baseline vs day 4, control 63.2",52.5
same,Mean CRP after treatment,"[9]; day 4, baseline 172.2 mg/L",36.4 mg/L
same,Cytokines and chemokines involved in the cytokine storm,[9]; [12],significant reduction
same,Mean SpO2/FiO2 over time post-treatment vs untreated,[9]; [15],statistically significant difference
same,Proportion of patients free of ARDS over time vs untreated,[9]; [15],significantly increased
same,"Survival, Kaplan-Meier event estimate (mortality)","[10]; mITT, lenzilumab arm, day 28, placebo 13.9",9.6%
same,"Ventilator-Free Survival, Kaplan-Meier event estimate (IMV and/or death)","[10]; mITT, lenzilumab arm, day 28, placebo 22.1",15.6%
same,SAEs attributed to lenzilumab,[10]; phase 3 trial,none were attributed to lenzilumab
same,Safety and tolerability,[10]; phase 3 trial,safe and well-tolerated
same,Increased likelihood of survival without IMV,"[10]; relative to placebo, mITT",54%
same,Increased likelihood of survival,"[10]; relative to placebo, not statistically significant",39% (NS)
same,Binding affinity,[11],picomolar range
same,Kd,[11],0.025 nM
same,Off-rate,[11],slow off-rate
